Laboratory results from paper PMC11587196 (Cell reports, 2024).

B1: 3G5 monoclonal antibody (hIgG1 with Fc-silent LALA mutations) (antibody, V domains shown)
VH: EVQLVESGGVLVKPGGSLKLSCAASGFTFSDYAMSWVRQTPEKRLEWVATITDGGSYAYYTDDVKGRFTVSRDNARNNLFLQMSHLRSEDTGIYYCSRDRWPYYFDFWGRGTTLTVSS
VL: DIQMTQSPTSLSVSVGETVTITCRISENIYSNLAWYQQKEGKSPQLLVYAATKLADGVPSRFSGSGSGTQYSLKINSLQSEDFGNYYCQHFWTTPRTFGGGTKVEIK
B2: 3G5 Fab (Fab, V domains shown)
VH: B1 VH
VL: B1 VL

Tests used:
Test in all cases: SPR
[1] = target: IL-1 receptor accessory protein (IL-1RAcP) ectodomain (Homo sapiens (Human)., UniProt Q9NPH3, glycosylated (seven putative glycosylation sites))
IL-1RAcP domain 3 = IL-1RAcP domain 3 (Homo sapiens, UniProt Q9NPH3)
IL-1RAcP domain 1/2 = IL-1RAcP domain 1/2 (Homo sapiens, UniProt Q9NPH3)
Fc-fused IL-1RAcP H226A = Fc-fused IL-1RAcP H226A (Homo sapiens, UniProt Q9NPH3, H226A)
Fc-fused IL-1RAcP R286A = Fc-fused IL-1RAcP R286A (Homo sapiens, UniProt Q9NPH3, R286A)
Fc-fused IL-1RAcP V224A = Fc-fused IL-1RAcP V224A (Homo sapiens, UniProt Q9NPH3, V224A)
Fc-fused IL-1RAcP Y249A = Fc-fused IL-1RAcP Y249A (Homo sapiens, UniProt Q9NPH3, Y249A)
Fc-fused IL-1RAcP Y249A, sequence (Q9NPH3 21-367 Y269A): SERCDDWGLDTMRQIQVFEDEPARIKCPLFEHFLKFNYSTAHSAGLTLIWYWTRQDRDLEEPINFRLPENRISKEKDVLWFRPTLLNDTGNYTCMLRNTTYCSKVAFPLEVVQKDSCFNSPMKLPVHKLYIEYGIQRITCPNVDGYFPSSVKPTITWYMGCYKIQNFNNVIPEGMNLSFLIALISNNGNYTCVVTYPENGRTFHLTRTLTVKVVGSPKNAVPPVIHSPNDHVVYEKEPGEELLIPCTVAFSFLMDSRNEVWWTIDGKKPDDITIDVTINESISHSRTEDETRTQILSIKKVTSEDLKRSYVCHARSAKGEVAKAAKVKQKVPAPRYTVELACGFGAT

IL-1 receptor accessory protein (IL-1RAcP) ectodomain, sequence (Q9NPH3 21-367): as the sequence (Q9NPH3 21-367 Y269A) above, with A249Y counted along it
Fc-fused IL-1RAcP V224A, sequence (Q9NPH3 21-367 V244A): as the sequence (Q9NPH3 21-367 Y269A) above, with V224A, A249Y counted along it
Fc-fused IL-1RAcP R286A, sequence (Q9NPH3 21-367 R306A): as the sequence (Q9NPH3 21-367 Y269A) above, with A249Y, R286A counted along it
Fc-fused IL-1RAcP H226A, sequence (Q9NPH3 21-367 H246A): as the sequence (Q9NPH3 21-367 Y269A) above, with H226A, A249Y counted along it

Binder	Kd [1] [pM]	koff [1] [s⁻¹]	Kd (IL-1RAcP domain 3) [pM]	binding result (IL-1RAcP domain 1/2)	ΔΔG (change in binding free energy against wild-type IL-1RacP-Fc) (Fc-fused IL-1RAcP H226A) [kcal/mol]	ΔΔG (change in binding free energy against wild-type IL-1RacP-Fc) (Fc-fused IL-1RAcP R286A) [kcal/mol]	ΔΔG (change in binding free energy against wild-type IL-1RacP-Fc) (Fc-fused IL-1RAcP V224A) [kcal/mol]	ΔΔG (change in binding free energy against wild-type IL-1RacP-Fc) (Fc-fused IL-1RAcP Y249A) [kcal/mol]
B1	141	0.000225	118	no binding (tested: 1.25nM to 20nM)				
B2					2.4	0.3	1.3	1.85
